Numbered stars: 1 amine (or outer) side, 2 acyl side, 3 side chain; on linkers, the order of the positions; unused ones are H or OH. * marks the point of attachment. C20 diacid = O=C(O)CCCCCCCCCCCCCCCCCCC(=O)*; γGlu = O=C(O)[C@H](CCC(=O)[*:2])N[*:1]
Assays:
[1] = biological target: T1, human amylin 3(a) receptor (human calcitonin receptor co-expressed with RAMP-3) (human, UniProt P30988 25-474; O60896 24-148, limits assumed); assay: cell-based or functional assay
T1 sequence (looked up) 1: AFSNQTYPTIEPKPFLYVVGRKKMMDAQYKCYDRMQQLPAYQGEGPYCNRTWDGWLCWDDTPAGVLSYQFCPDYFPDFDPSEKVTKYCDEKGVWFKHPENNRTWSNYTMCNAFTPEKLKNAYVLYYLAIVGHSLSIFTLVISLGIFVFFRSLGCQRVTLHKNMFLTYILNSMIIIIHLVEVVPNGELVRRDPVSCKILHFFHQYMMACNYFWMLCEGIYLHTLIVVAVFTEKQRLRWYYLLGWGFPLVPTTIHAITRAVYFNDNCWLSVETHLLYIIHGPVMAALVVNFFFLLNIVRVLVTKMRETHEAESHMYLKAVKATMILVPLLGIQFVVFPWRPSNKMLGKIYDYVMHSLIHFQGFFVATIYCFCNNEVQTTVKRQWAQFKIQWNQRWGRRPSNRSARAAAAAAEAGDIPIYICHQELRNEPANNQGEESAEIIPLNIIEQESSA
T1 sequence (looked up) 2: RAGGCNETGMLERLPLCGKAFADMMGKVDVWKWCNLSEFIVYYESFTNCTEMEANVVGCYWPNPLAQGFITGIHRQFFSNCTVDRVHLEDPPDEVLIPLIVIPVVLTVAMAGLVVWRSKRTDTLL

[2] = biological target: T2, human calcitonin receptor (human, UniProt P30988 25-474); assay: cell-based or functional assay
T2 sequence (looked up): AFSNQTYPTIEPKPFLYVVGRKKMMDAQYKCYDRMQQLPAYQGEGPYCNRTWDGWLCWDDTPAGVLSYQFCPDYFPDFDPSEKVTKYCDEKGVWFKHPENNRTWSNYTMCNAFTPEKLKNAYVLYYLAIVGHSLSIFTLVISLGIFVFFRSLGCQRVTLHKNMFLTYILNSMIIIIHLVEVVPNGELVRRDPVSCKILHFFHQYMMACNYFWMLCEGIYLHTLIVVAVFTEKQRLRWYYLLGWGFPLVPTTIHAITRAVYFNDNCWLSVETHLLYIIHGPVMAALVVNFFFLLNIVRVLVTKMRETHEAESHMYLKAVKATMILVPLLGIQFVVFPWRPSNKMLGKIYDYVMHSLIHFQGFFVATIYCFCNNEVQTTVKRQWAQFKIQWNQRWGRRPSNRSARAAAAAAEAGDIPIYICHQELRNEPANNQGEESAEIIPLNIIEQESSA

Binder	hAmylin-R funct. EC50 (pM) [1] [pM]	hCTR funct. EC50 (pM) [2] [pM]
{C20 diacid-γGlu}-ASELSTAALGRLSAELHELATLPRTETGSGSH-NH2 (SMILES CC(C)C[C@H](NC(=O)[C@H](C)NC(=O)[C@H](C)NC(=O)[C@@H](NC(=O)[C@H](CO)NC(=O)[C@H](CC(C)C)NC(=O)[C@H](CCC(=O)O)NC(=O)[C@H](CO)NC(=O)[C@H](C)NC(=O)CC[C@H](NC(=O)CCCCCCCCCCCCCCCCCCC(=O)O)C(=O)O)[C@@H](C)O)C(=O)NCC(=O)N[C@@H](CCCNC(=N)N)C(=O)N[C@@H](CC(C)C)C(=O)N[C@@H](CO)C(=O)N[C@@H](C)C(=O)N[C@@H](CCC(=O)O)C(=O)N[C@@H](CC(C)C)C(=O)N[C@@H](Cc1c[nH]cn1)C(=O)N[C@@H](CCC(=O)O)C(=O)N[C@@H](CC(C)C)C(=O)N[C@@H](C)C(=O)N[C@H](C(=O)N[C@@H](CC(C)C)C(=O)N1CCC[C@H]1C(=O)N[C@@H](CCCNC(=N)N)C(=O)N[C@H](C(=O)N[C@@H](CCC(=O)O)C(=O)N[C@H](C(=O)NCC(=O)N[C@@H](CO)C(=O)NCC(=O)N[C@@H](CO)C(=O)N[C@@H](Cc1c[nH]cn1)C(N)=O)[C@@H](C)O)[C@@H](C)O)[C@@H](C)O) [[N-terminal(C20 diacid-gGlu), des1, 30S, 31G, 33H]mimylin]	53	48
{C20 diacid-γGlu}-ASELSTAALGRLSAELHELATLPRTETGSGSY-NH2 (SMILES CC(C)C[C@H](NC(=O)[C@H](C)NC(=O)[C@H](C)NC(=O)[C@@H](NC(=O)[C@H](CO)NC(=O)[C@H](CC(C)C)NC(=O)[C@H](CCC(=O)O)NC(=O)[C@H](CO)NC(=O)[C@H](C)NC(=O)CC[C@H](NC(=O)CCCCCCCCCCCCCCCCCCC(=O)O)C(=O)O)[C@@H](C)O)C(=O)NCC(=O)N[C@@H](CCCNC(=N)N)C(=O)N[C@@H](CC(C)C)C(=O)N[C@@H](CO)C(=O)N[C@@H](C)C(=O)N[C@@H](CCC(=O)O)C(=O)N[C@@H](CC(C)C)C(=O)N[C@@H](Cc1c[nH]cn1)C(=O)N[C@@H](CCC(=O)O)C(=O)N[C@@H](CC(C)C)C(=O)N[C@@H](C)C(=O)N[C@H](C(=O)N[C@@H](CC(C)C)C(=O)N1CCC[C@H]1C(=O)N[C@@H](CCCNC(=N)N)C(=O)N[C@H](C(=O)N[C@@H](CCC(=O)O)C(=O)N[C@H](C(=O)NCC(=O)N[C@@H](CO)C(=O)NCC(=O)N[C@@H](CO)C(=O)N[C@@H](Cc1ccc(O)cc1)C(N)=O)[C@@H](C)O)[C@@H](C)O)[C@@H](C)O) [[N-terminal(C20 diacid-gGlu), des1, 30S, 31G, 33Y]mimylin]	46	37
{C20 diacid-γGlu}-ASELSTAALGRLSAELHELATLPRTETGSGSF-NH2 (SMILES CC(C)C[C@H](NC(=O)[C@H](C)NC(=O)[C@H](C)NC(=O)[C@@H](NC(=O)[C@H](CO)NC(=O)[C@H](CC(C)C)NC(=O)[C@H](CCC(=O)O)NC(=O)[C@H](CO)NC(=O)[C@H](C)NC(=O)CC[C@H](NC(=O)CCCCCCCCCCCCCCCCCCC(=O)O)C(=O)O)[C@@H](C)O)C(=O)NCC(=O)N[C@@H](CCCNC(=N)N)C(=O)N[C@@H](CC(C)C)C(=O)N[C@@H](CO)C(=O)N[C@@H](C)C(=O)N[C@@H](CCC(=O)O)C(=O)N[C@@H](CC(C)C)C(=O)N[C@@H](Cc1c[nH]cn1)C(=O)N[C@@H](CCC(=O)O)C(=O)N[C@@H](CC(C)C)C(=O)N[C@@H](C)C(=O)N[C@H](C(=O)N[C@@H](CC(C)C)C(=O)N1CCC[C@H]1C(=O)N[C@@H](CCCNC(=N)N)C(=O)N[C@H](C(=O)N[C@@H](CCC(=O)O)C(=O)N[C@H](C(=O)NCC(=O)N[C@@H](CO)C(=O)NCC(=O)N[C@@H](CO)C(=O)N[C@@H](Cc1ccccc1)C(N)=O)[C@@H](C)O)[C@@H](C)O)[C@@H](C)O) [[N-terminal(C20 diacid-gGlu), des1, 30S, 31G, 33F]mimylin]	50	40

From patent publication US20160272683A1 (Novo Nordisk, published 2016)
